The term Kd denotes the constant that tells how readily two partners part at equilibrium. Higher therefore signals weaker binding.

Test [1] has as its target BTN3A1 B30.2 domain (human) (UniProt O00481).
The target of test [2] is BTN3A1 B30.2 domain, O00481. Nature of the test: ITC. Conditions: chain shown with the change; with HMBPP.
BTN3A1 B30.2 domain, O00481, sequence (O00481 328-513): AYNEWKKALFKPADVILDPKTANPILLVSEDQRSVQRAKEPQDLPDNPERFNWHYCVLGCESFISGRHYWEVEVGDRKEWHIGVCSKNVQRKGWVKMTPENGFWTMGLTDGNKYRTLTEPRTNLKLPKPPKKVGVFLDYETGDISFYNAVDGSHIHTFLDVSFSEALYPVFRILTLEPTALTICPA

BTN3A1 B30.2 domain (human), sequence (O00481 328-513): as above

B1: BTN2A1 B30.2 domain (domain or fragment)
chain: EELRWRRTFLHAVDVVLDPDTAHPDLFLSEDRRSVRRCPFRHLGESVPDNPERFDSQPCVLGRESFASGKHYWEVEVENVIEWTVGVCRDSVERKGEVLLIPQNGFWTLEMHKGQYRAVSSPDRILPLKESLCRVGVFLDYEAGDVSFYNMRDRSHIYTCPRSAFSVPVRPFFRLGCEDSPIFICPALTGANGVTVPEEGLTLHRVGTHQSL
B1 returned an AFM-SCFS binding force between a Vγ9Vδ2 T cell and a MIA PaCa-2 cell, without and with HMBPP treatment in test [1] of 1550 pN.

B2: BTN2A2 B30.2 domain, Q8WVV5 W374R; M506T (protein)
chain: EELRWRRTFLHAADVVLDPDTAHPELFLSEDRRSVRRGPYRQRVPDNPERFDSQPCVLGRESFASGKHYWEVEVENVMVWTVGVCRHSVERKGEVLLIPQNGFWTLEMFGNQYRALSSPERILPLKESLCRVGVFLDYEAGDVSFYNMRDRSHIYTCPRSAFTVPVRPFFRLGSDDSPIFICPALTGASGVTVPEEGLKLHRVGTHQSL
B2 returned a Kd in test [2] of 189 nM. That is a sub-micromolar value.

(Values after publication PMC10533412, “Phosphoantigens glue butyrophilin 3A1 and 2A1 to activate Vγ9Vδ2 T cells” (Nature, 2023).)
